Assay results: US8283126B2, “Voltage sensor domains of voltage-dependent ion channel proteins and uses thereof” (The Rockefeller University, priority 2003, dated 2012)

Key:
KvAP channel = target: T1, KvAP channel (Aeropyrum pernix, UniProt Q9YDF8); assay: Electrophysiological assay of KvAP channels reconstituted into planar lipid bilayers; assay type: biochemical
T1 construct: made in house; host or cells: Escherichia coli
T1 sequence (Q9YDF8 14-295 limits assumed): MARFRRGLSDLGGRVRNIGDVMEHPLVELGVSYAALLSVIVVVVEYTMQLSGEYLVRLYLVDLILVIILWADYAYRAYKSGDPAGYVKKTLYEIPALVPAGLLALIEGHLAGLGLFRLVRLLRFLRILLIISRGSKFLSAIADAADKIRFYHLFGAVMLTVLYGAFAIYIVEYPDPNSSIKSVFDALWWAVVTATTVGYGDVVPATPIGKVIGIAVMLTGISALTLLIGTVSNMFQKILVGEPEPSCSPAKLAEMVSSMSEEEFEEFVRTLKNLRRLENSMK
From the text: KvAP channels were expressed in Escherichia coli, extracted with decylmaltoside, purified and reconstituted into planar lipid bilayers of 1-palmitoyl-2-oleoyl-phosphotidylglycerol (POPG) and 1-palmitoyl-2-oleoyl-phosphotidylethanolamine (POPE) for functional studies.
To examine the structural similarity of KvAP to eukaryotic K^+ channel pores, the ability of a small protein toxin from scorpion venom to inhibit the KvAP channel was examined.
To determine the orientation of channels incorporated into planar lipid bilayers, we used CTX, which causes inhibition by binding only to the extracellular side. KvAP channels open in response to membrane depolarization (e.g., when the voltage of the CTX-insensitive (intracellular) side of the membrane is made positive relative to the CTX-sensitive (extracellular) side. KvAP channels are strongly voltage-dependent, opening as a function of membrane voltage, similar to Shaker and other eukaryotic neuronal Kv channels.
The isolate voltage sensor immobilized to a resin in the column efficiently purifies toxins from tarantula venom (FIG. 3A).

[1] = target: T2, isolated voltage sensor domain (S1-S4) of KvAP (Aeropyrum pernix, UniProt Q9YDF8); assay: Binding of toxins to isolated voltage sensor domain immobilized on Co2+ affinity column, reverse phase HPLC of eluate; conditions: voltage sensor domain on Co2+ resin column versus control column without domain; elution with 400 mM imidazole
T2 construct: encoding Met1 to Lys147 was cloned into a pQE60 expression vector; made in house; host or cells: E. coli XL1-Blue
T2 sequence (Q9YDF8 with tags, fused parts or gaps): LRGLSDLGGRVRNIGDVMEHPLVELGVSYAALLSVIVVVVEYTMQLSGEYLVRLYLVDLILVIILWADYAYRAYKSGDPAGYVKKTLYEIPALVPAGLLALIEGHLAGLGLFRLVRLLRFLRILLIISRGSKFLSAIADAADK
Experimental: Isolated voltage sensor was expressed and purified according to Example 5. To generate the voltage sensor domain column for isolation of toxins, 0.1 ml of Co^2+ resin was washed with water and then equilibrated with Buffer A (20 mM Tris pH 8.0, 100 mM KCl, and 10 mM DM) in an eppendorf tube by 3-4 rounds of centrifugation (500 rpm) to collect resin, careful removal of the supernatant with a pipette and resuspension of the resin in either 1 ml of water or 0.4 ml of Buffer A.
Approximately 2 mg of voltage sensor domain was added to the equilibrated resin. The resin and voltage sensor domain protein were incubated for ˜15 minutes. The resin was then applied to a micro chromatography column (Biorad). Samples of the voltage sensor domain prior to addition to the resin and the flow through after addition of resin to the column was kept and later run on an SDS gel to ensure that an excess of protein has been added to the resin and saturated with protein. […]
Remaining protein was eluted from both columns with 0.1 ml of Buffer A containing 400 mM imidazole and reduced with 50 mM DTT at 37° C. for 2 hours to improve separation by reverse phase high performance liquid chromatography (HPLC). […] Peaks are collected and analyzed by MALDI-TOF mass spectrometry focusing on the low molecular weight range (˜800-10,000 Da).

| Substance | inhibition of KvAP channel currents (KvAP channel; currents elicited by a +100 mV depolarization) | binding to the isolated voltage sensor domain [1] | Kd (KvAP channel; KvAP channel in planar lipid bilayers, read-out: dissociation constant (Kd) for inhibition of the KvAP channel) [µM] |
| --- | --- | --- | --- |
| VSTX1 (ECGKFMWKCKNSNDCCKDLVCSSRWKWCVLASPF) | inhibits KvAP channel currents | binds to the domain | – |
| charybdotoxin [CTX, reference compound] | – | – | ~400 |
